Results reported in the nanobody polyreactivity screen of Harvey et al. (2022).

assay: yeast display, Sf9 membrane polyspecificity reagent, FACS + sequencing; frameworks hold sequencing errors
How it was run: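 After 36–48 hours of galactose induction, yeast (Saccharomyces cerevisiae BJ5465) displaying a synthetic nanobody library were stained at 4 °C for 1 hour with 10% biotinylated, detergent-solubilized Sf9 membrane reagent. Streptavidin microbeads enriched the stained cells before FACS sorting into low and high (top ~1%) gates on anti-HA and streptavidin fluorescence. Each clone's polyreactivity label reflects its gate of origin.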

Sequence | polyreactivity (PSR sort gate)
QVQLVESGGGLVQAGGSLRLSCAASGFTFRYYAMGWYRKAPGKERELVAAITRRGGSKYYADSVKGRFTISRDNAKNTVYLQMNSLKPEDTAVYDCAASLWTTSADYDYWGQGTQVTVSS | high polyreactivity
QVQLVESGGGLVQAGGSLRLSCAASGFTFRYYAMGWYRQAPGKERELVAAISSGGNTRYADSVKGRFTISRDNAKNTVYLQMNSLKPEDTAVYYCARRPGAWKYVYTGDYWGQGTQVTVSS | high polyreactivity
QVQLVESGGGLVQAGGSLRLSCAASGFTFRYYAMGWYRQAPGKERELVAAISWRGGRTYYADSVKGRFTISRDNAKNTVYIQMNSLKPEDTAVYYCAALRERQTRGNYWGQGTQVTVSS | high polyreactivity
QVQLVESGGGLVQAGGSLRLSCAASGFTFRYYAMGWYRQAPGKERELVAAITRNGGSTYYADSVKGRFTISRDNAKHTVYLQMNSLKPEETAVYYCNRYGRQYDFYYWGQGTQVTVSS | high polyreactivity
QVQLVESGGGLVQAGGSLRLSCAASGFTFRYYTMGWYRQAPGKERELVARITTGGSTKYADSVKGRFTISRDNAKNTVYLQMNSLKPEDTAVYYCAARQYKWWFSQDGYDYWGQGTQVTVSS | high polyreactivity
QVQLVESGGGLVQAGGSLRLSCAASGFTFRYYVMGWYRQAPGTERELVAAISWTGGSTYYADSVKGRFTISRDNAKNTVYLQMTSLKPEDTAVYYCNAASLSKSDYWGQGTQVTVSS | high polyreactivity
QVQLVESGGGLVQAGGSLRLSCAASGFTFSAYAMGWYRQAPGKERELVAAISWSGSRTYYADSVKGRFTISRDNAKNTVYLQMNSLKPEDTAVYYCAKEPYDTFGFYEYDYWGQGTQVTVSS | low polyreactivity
QVQLVESGGGLVQAGGSLRLSCAASGFTFSDNAMGWYRQAPGKEREFVATIDWSGGSTYYADSVKGRFTISRDNAKNTVYLQMNSLKPDDTAVYYCAATFRYSTSQYLQGYDYWGQGTQVTVSS | low polyreactivity
QVQLVESGGGLVQAGGSLRLSCAASGFTFSDYAMGSNRQAPGKERELVAAITSRTGTTYYADSVKWRFTISRDNAKNTVYLQMNSLKPEDTAVYYCNKVKFRSQDMDYWGQGTQVTVSS | high polyreactivity
QVQLVESGGGLVQAGGSLRLSCAASGFTFSFYTMGGYRQAPGTARELVAAISRNGGSTYYADSVKGRFTISRDNAKTTDYFQMNSLKPEDTAVYYCAARARGGDWGSGDYWGQGTQVTVSS | high polyreactivity
QVQLVESGGGLVQAGGSLRLSCAASGFTFSGNTMGWSRQAPGKERELVATISRTGGITYYADSVKGRFTISRDNAKNTVYLQMNSLKPEDTAVYYCNRRYYYFVYPDDYWGQGTQVTVSS | high polyreactivity
QVQLVESGGGLVQAGGSLRLSCAASGFTFSGYSMGWYRPAPGKERELVAAITKSGGSTYYADSVKGRFTISRDTAKNTVYLQMNSLKPEDTAVYYCNADVLYTTEGDYWGQGTQVTVSS | high polyreactivity
QVQLVESGGGLVQAGGSLRLSCAASGFTFSHYAMGWYRQAPGKERELVAAISWGGGSTYYADSVKGRFTISRDNAKNTVYLQMKSLIPEDTAVYYCARDVVYRGYYYGAFDYCGQGTQVTVSS | low polyreactivity
QVQLVESGGGLVQAGGSLRLSCAASGFTFSKYAMGWYRQAPGKERELVAAITSGDDTNYADSVKGRFTISRDNAKNTVYLQMNSLKPEDTAVYYCNAEYTVYYSYWAIGVDYWGQGTQVTVSS | high polyreactivity
QVQLVESGGGLVQAGGSLRLSCAASGFTFSKYVKGLYRQAPGKERELVAAISKRGGSTYYADSVKGRFTISRDYAKNTVYLQMNSLKPEDTAVYYCAARYYLEQILEKDYWVQGTQVTVSS | high polyreactivity
QVQLVESGGGLVQAGGSLRLSCAASGFTFSLNTMGWYRQAPGKEREFVAAITYRTGRTYYADSVKGRFTISRDNAKNTVYLQMNSLKPDDTAVYYCNAGEHTRWYYWTPTYTTVDYWGLGTQVTVSS | low polyreactivity
QVQLVESGGGLVQAGGSLRLSCAASGFTFSLYAMGWYRQAPGKERELVAAISRSGGSTYYADSVKGRFTISRDNAKKTVYLQMNSLKPEDTAVYYCNAPYSVSSIRYDYWGQGTQVTVSS | high polyreactivity
